Experimental data reported in US20180073000A1.
Changes are numbered by the printed parent chain.

Experiments:
[1] = target: T1, Wild type N-acetylgalactosamine-6-sulfate sulfatase (GALNS) (Homo sapiens)
T1 sequence: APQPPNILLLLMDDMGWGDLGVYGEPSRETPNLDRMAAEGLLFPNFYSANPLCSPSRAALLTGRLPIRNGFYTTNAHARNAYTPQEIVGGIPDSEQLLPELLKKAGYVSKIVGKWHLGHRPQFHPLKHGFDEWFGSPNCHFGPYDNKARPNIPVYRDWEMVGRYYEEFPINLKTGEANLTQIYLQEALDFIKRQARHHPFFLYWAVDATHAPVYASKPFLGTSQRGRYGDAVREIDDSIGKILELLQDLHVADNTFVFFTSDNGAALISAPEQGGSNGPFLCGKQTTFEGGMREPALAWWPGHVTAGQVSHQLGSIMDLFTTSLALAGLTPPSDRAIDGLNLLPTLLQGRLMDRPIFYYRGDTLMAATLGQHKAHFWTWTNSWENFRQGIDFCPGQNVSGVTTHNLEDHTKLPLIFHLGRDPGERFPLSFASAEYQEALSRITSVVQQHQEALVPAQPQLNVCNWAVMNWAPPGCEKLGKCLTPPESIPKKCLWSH

[2] = target: T2, GALNS-315 (E8-N14 + I10-N14) (Homo sapiens)
T2 sequence: T1 sequence with Y203I, A208L, A211I, P455G, A456I, P458G

[3] = target: T3, E8-N13 modified GALNS (Homo sapiens)
T3 sequence: T1 sequence with Y203I, A208L, A211L

[4] = target: T4, GALNS-201 (C4-N6 + I10-N14) (Homo sapiens)
T4 sequence: T1 sequence with A148I, P150G, N151Q, P455G, A456I, P458G

[5] = target: T5, I10-N14 modified GALNS (Homo sapiens)
T5 sequence: T1 sequence with P455G, A456I, P458G

[6] = target: T6, C4-N6 modified GALNS (Homo sapiens)
T6 sequence: T1 sequence with A148I, P150G, N151Q

[7] = target: T7, GALNS-231 (C4-N6 + E8-N14 + I10-N14) (Homo sapiens)
T7 sequence: T1 sequence with A148I, P150G, N151Q, Y203I, A208L, A211I, P455G, A456I, P458G

[8] = target: T8, GALNS-242 (C4-N7 + E8-N11) (Homo sapiens)
T8 sequence: T1 sequence with A148L, P150G, N151Q, Y203I, A205L, A211L

- GALNS enzyme activity in the pellet of COS-7 cells co-transfected with SUMF1, percentage of GALNS without SUMF1 (percent of GALNS (without SUMF1)) [1]: 1930
- GALNS enzyme activity in the pellet of COS-7 cells co-transfected with SUMF1, percentage of GALNS without SUMF1 (percent of GALNS (without SUMF1)) [2]: 563
- GALNS enzyme activity in the pellet of COS-7 cells co-transfected with SUMF1, percentage of GALNS without SUMF1 (percent of GALNS (without SUMF1)) [3]: 567
- GALNS enzyme activity in the pellet of COS-7 cells co-transfected with SUMF1, percentage of GALNS without SUMF1 (percent of GALNS (without SUMF1)) [4]: 545
- GALNS enzyme activity in the pellet of COS-7 cells co-transfected with SUMF1, percentage of GALNS without SUMF1 (percent of GALNS (without SUMF1)) [5]: 568
- GALNS enzyme activity in the pellet of COS-7 cells co-transfected with SUMF1, percentage of GALNS without SUMF1 (percent of GALNS (without SUMF1)) [6]: 443
- GALNS enzyme activity in the pellet of COS-7 cells co-transfected with SUMF1, percentage of GALNS without SUMF1 (percent of GALNS (without SUMF1)) [7]: 628
- GALNS enzyme activity in the pellet of COS-7 cells co-transfected with SUMF1, percentage of GALNS without SUMF1 (percent of GALNS (without SUMF1)) [8]: 434
B1: Sulfatase-modifying factor 1 (SUMF1) (enzyme)
chain: SQEAGTGAGAGSLAGSCGCGTPQRPGAHGSSAAAHRYSREANAPGPVPGERQLAHSKMVPIPAGVFTMGTDDPQIKQDGEAPARRVTIDAFYMDAYEVSNTEFEKFVNSTGYLTEAEKFGDSFVFEGMLSEQVKTNIQQAVAAAPWWLPVKGANWRHPEGPDSTILHRPDHPVLHVSWNDAVAYCTWAGKRLPTEAEWEYSCRGGLHNRLFPWGNKLQPKGQHYANIWQGEFPVTNTGEDGFQGTAPVDAFPPNGYGLYNIVGNAWEWTSDWWTVHHSVEETLNPKGPPSGKDRVKKGGSYMCHRSYCYRYRCAARSQNTPDSSASNLGFRCAADRLPTMD
